Experimental data from PMC4227695, “Combining Anti-ERBB3 Antibodies Specific for Domain I and Domain III Enhances the Anti-Tumor Activity over the Individual Monoclonal Antibodies” (PLoS ONE, 2014).
One block for each binder: values may come before it.

Legend:
[1] = biological target: T1, ERBB3 extracellular domain I (dI, aa20-207) (Homo sapiens, UniProt P21860); assay: native gel or EMSA; IgG (30-40 ug) with dI at 1.5x and 3x molar ratios of IgG:dI, 4 uL reaction, 30 min at room temperature; 12.5% native acrylamide gel (PhastGel), stained; loss of free dI read; conditions: both partners purified
T1 construct: ERBB3/HER3 domain I, aa20-207; Sub-cloned into pSEC-Tag2/HygroA (vector-supplied secretion signal; the vector may add further tag residues); source: HEK293, stably expressed, purified from culture supernatant (IMAC, HisTrap)
T1 sequence (P21860 20-207): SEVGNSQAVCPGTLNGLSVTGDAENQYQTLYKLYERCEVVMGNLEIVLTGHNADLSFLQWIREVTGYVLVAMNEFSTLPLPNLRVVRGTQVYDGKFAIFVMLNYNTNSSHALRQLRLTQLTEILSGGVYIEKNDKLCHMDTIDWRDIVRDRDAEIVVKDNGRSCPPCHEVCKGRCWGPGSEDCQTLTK

ERBB3 on BT-474 cells = biological target: T2, ERBB3 on BT-474 cells (Homo sapiens, UniProt P21860); assay: flow cytometry on cells; 0, 0.5, 2, 5 ug IgG with BT-474 cells (250,000 cells/assay); detected with FITC-conjugated anti-human Fc; conditions: one partner purified
T2 construct: ERBB3/HER3 receptor on the surface of BT-474 breast cancer cells; Also used for the functional rows, where the cells were BT-474, NCI-N87 and ACHN; also called HER3; source: endogenous, BT-474 cells
T2 sequence (P21860 20-1342): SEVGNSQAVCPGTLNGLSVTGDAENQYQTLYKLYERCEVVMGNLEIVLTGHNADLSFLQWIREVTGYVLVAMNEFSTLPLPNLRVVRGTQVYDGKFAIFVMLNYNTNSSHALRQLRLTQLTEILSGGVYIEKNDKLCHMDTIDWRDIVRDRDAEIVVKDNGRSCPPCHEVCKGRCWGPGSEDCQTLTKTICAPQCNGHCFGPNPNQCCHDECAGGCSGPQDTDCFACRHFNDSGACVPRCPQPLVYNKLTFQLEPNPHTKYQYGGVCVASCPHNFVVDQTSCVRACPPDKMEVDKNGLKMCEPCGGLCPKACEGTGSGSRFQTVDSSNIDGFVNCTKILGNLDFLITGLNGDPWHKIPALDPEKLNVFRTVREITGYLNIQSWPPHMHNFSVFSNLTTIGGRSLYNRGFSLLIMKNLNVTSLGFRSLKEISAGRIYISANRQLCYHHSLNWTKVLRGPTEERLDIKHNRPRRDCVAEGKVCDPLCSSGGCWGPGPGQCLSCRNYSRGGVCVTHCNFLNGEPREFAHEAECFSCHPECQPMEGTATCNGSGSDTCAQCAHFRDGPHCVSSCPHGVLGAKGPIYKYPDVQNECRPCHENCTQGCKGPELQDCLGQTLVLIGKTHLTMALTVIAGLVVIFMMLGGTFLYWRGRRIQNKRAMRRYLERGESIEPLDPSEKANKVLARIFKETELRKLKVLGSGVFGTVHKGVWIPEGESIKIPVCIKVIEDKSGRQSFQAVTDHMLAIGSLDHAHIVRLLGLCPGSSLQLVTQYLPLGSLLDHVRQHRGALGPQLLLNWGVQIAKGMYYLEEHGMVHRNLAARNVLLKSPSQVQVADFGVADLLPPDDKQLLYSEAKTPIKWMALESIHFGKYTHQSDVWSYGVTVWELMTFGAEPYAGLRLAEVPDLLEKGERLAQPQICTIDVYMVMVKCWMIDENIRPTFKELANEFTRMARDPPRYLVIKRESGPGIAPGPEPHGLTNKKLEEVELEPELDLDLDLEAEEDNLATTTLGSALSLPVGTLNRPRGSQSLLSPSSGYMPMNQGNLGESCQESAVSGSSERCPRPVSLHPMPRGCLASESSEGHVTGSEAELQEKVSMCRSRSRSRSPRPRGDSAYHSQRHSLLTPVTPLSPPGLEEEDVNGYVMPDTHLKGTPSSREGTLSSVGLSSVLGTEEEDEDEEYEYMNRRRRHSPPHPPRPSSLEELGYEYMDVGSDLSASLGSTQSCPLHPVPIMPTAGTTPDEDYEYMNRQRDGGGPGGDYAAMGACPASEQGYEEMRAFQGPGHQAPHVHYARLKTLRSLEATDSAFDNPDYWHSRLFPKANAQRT

[2] = biological target: T3, intact ERBB3 extracellular domain (dI-IV, aa20-639) (Homo sapiens, UniProt P21860); assay: ELISA; apparent; ERBB3 extracellular domain immobilised; 4-fold serial dilutions of IgG (1333-0.02 nM); detected with HRP-conjugated anti-human Fc
T3 construct: ERBB3/HER3 extracellular domain, domains I-IV, aa20-639; also called ERBB3 ECD; intact ERBB3 ECD; source: purified from culture supernatant by IMAC (HisTrap)
T3 sequence (P21860 20-639): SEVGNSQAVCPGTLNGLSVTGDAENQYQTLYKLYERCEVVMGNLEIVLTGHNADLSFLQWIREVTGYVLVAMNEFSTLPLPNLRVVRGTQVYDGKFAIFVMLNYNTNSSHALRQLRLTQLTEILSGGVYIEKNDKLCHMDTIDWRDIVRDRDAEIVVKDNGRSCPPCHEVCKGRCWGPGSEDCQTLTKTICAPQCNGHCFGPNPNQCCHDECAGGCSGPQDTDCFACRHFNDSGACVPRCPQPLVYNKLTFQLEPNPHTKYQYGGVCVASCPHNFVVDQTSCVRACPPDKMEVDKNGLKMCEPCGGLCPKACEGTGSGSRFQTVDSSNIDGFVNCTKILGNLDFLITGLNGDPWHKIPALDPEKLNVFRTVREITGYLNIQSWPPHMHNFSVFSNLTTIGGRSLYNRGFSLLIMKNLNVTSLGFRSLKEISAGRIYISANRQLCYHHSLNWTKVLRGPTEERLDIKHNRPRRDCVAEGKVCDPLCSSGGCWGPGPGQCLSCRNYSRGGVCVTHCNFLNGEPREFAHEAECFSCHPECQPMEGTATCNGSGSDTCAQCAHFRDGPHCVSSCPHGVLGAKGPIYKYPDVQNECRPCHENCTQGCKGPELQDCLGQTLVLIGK

[3] = biological target: T1, ERBB3 extracellular domain I (dI, …); assay: pull-down; called immunoprecipitation: scFv coupled to AminoLink agarose (about 80 ug scFv, 20-50 fold excess) incubated 1 h at room temperature with 5 ug ERBB3 ECD fragment in 40 uL; washed 3x with PBS; supernatant and pellet fractions on SDS-PAGE; conditions: both partners purified
[4] = biological target: T4, ERBB3 extracellular domains I-II (dI-II, aa20-329) (Homo sapiens, UniProt P21860); assay: as above; conditions: both partners purified
T4 construct: ERBB3/HER3 domains I-II, aa20-329; Sub-cloned into pSEC-Tag2/HygroA (vector-supplied secretion signal; the vector may add further tag residues); source: HEK293, stably expressed, purified from culture supernatant (IMAC, HisTrap)
T4 sequence (P21860 20-329): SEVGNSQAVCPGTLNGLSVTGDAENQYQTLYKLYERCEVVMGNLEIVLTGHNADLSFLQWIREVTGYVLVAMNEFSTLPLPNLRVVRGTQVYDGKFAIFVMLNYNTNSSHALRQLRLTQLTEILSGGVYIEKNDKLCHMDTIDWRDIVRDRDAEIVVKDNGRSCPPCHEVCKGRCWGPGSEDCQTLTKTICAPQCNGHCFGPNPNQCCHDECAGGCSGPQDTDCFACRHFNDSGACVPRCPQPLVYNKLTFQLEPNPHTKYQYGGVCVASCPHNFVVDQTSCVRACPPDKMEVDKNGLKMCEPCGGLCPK

[5] = biological target: T3, intact ERBB3 extracellular domain …; assay: as above; conditions: both partners purified
[6] = biological target: T5, ERBB3 extracellular domain III (dIII, aa311-477) (Homo sapiens, UniProt P21860); assay: as above; conditions: both partners purified
T5 construct: ERBB3/HER3 domain III, aa311-477; Subcloned into pMTBiPV5HISa (vector-supplied secretion signal; the vector may add further tag residues); source: S2 cells, stably expressed, purified from culture supernatant (IMAC, HisTrap)
T5 sequence (P21860 311-477): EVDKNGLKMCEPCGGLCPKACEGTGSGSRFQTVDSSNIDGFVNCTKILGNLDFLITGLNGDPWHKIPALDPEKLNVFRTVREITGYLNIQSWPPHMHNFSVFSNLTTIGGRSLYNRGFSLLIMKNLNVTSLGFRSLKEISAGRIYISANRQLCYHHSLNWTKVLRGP

[7] = biological target: T6, ERBB3 extracellular domains III-IV (dIII-IV, aa310-616) (Homo sapiens, UniProt P21860); assay: as above; conditions: both partners purified
T6 construct: ERBB3/HER3 domains III-IV, aa310-616; source: purified from culture supernatant by IMAC (HisTrap)
T6 sequence (P21860 310-616): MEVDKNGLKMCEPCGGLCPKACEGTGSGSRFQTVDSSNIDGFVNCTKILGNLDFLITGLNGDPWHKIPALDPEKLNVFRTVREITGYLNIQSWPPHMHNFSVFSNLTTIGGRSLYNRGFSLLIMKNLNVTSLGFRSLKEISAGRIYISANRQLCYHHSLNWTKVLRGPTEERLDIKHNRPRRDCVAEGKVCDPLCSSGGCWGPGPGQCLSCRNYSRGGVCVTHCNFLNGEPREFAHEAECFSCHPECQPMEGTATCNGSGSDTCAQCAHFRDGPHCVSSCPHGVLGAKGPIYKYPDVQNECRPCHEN

binding result (ERBB3 on BT-474 cells): binds | Kd [2]: 11.1 nM
B3: A5 anti-ERBB3 IgG (human IgG1 format) (antibody, V domains shown)
VH: QVQLVQSGGGLVKPGGSLRLSCAASGFSFNTYDMNWVRQAPGKGLEWVSSISSSSSYIYYADSVKGRFTISRDNAKNSLYLQMNSLRAEDTAVYYCARDGVATTPFDYWGQGTLVTVSS
VL: QSVLTQPPSVSGAPGQRVTISCTGSSSNIGAGYDVHWYQQLPGTAPKLLIYGNSNRPSGVPDRFSGSKSGTSASLAITGLQAEDEADYYCQSYDSSLSALFGGGTKLTVL
notes: A5 variable heavy (Vh) domain; human IgG1 heavy chain constant region; A5 variable light (Vl) domain; light chain constant domain; IgG1; also called A5 IgG; source: purified from conditioned media by protein A chromatography; copies: 2 + 2
binding result [1]: no binding (tested: 1.5x and 3x Molar excess of antibody)

binding result [6]: binds | binding result [7]: binds | binding result [5]: binds
B4: A5 anti-ERBB3 single-chain Fv (scFv, V domains shown)
VH: B3 VH
VL: B3 VL
notes: A5 variable heavy (Vh) domain; linker of the scFv; A5 variable light (Vl) domain; Coupled to AminoLink agarose in the immunoprecipitations; also called A5 scFv

Further lines, the binder ahead of its results:

B1: F4 anti-ERBB3 IgG (human IgG1 format) (antibody, V domains shown)
VH: QVQLQESGGGLVKPGGSLRLSCAASGFTFSSYAMSWVRQAPGKGLEWVSTISGSGGSTYYADSVKGRFTISRDNSKNTLYLQMNSLRAEDTAVYYCAKGYSSSWSEVASGYWGQGTLVTVSS
VL: DIVMTQSPSSLSASVGDRVTITCRASQGIRNDLGWYQQKAGKAPKLLIYAASSLQSGVPSRFSGSGSGTDFTLTISSLQPDDFATYFCQQAHSFPPTFGGGTKVEIK
notes: F4 variable heavy (Vh) domain; human IgG1 heavy chain constant region; F4 variable light (Vl) domain; light chain constant domain; IgG1; also called F4 IgG; source: purified from conditioned media by protein A chromatography; copies: 2 + 2
binding result [1]: binds | binding result (ERBB3 on BT-474 cells): binds | Kd [2]: 4.8 nM

B2: F4 anti-ERBB3 single-chain Fv (scFv, V domains shown)
VH: B1 VH
VL: B1 VL
notes: F4 variable heavy (Vh) domain; linker of the scFv; F4 variable light (Vl) domain; Coupled to AminoLink agarose in the immunoprecipitations; also called F4 scFv
binding result [3]: binds | binding result [4]: binds | binding result [5]: binds
